Reference: paper PMC8682754 (Nucleic Acids Research, 2021)
Where a chain is given by its changes, count along the chain named. Like-named read-outs stand apart in the source and are kept apart here. Values belong to the molecule of their own block, whether it stands above or below them.

Key:
[1] = target: SegA (Sulfolobus solfataricus)
[2] = target: SegB (Sulfolobus solfataricus); assay: SEC
SegA [3] = target: T1, SegA (Saccharolobus solfataricus, UniProt Q981B3); assay: X-ray crystal structure; assay type: binding; conditions: nucleotide pocket
T1 sequence (Q981B3 1-220): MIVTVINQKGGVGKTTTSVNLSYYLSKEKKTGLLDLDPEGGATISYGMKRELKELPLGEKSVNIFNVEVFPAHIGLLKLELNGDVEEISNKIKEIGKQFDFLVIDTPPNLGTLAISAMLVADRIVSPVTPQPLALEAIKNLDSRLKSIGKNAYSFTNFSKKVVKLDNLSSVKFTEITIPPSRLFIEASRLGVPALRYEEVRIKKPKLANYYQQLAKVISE

[4] = target: SegA (Sulfolobus solfataricus); assay: SEC
SegBΔ33 [5] = target: T2, SegBΔ33 (Sulfolobus solfataricus, UniProt Q981B2 34-109, del1-33); assay: fluorescence polarization
T2 sequence: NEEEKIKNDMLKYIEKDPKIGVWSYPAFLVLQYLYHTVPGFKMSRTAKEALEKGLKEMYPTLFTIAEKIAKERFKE

SegB = target: T3, SegB (Sulfolobus solfataricus, UniProt Q981B2 1-109); assay: fluorescence polarization
T3 sequence: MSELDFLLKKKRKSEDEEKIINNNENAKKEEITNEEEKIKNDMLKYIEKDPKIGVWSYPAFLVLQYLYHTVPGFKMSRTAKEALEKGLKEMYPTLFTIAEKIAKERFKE

SegA-K14Q = target: T4, SegA-K14Q (Sulfolobus solfataricus, UniProt Q981B3 1-220, K14Q); assay: fluorescence polarization
T4 sequence: T1 sequence (Q981B3 1-220) with K14Q

SegA-G10V = target: T5, SegA-G10V (Sulfolobus solfataricus, UniProt Q981B3 1-220, G10V); assay: fluorescence polarization
T5 sequence: T1 sequence (Q981B3 1-220) with G10V

SegA-Q131A = target: T6, SegA-Q131A (Sulfolobus solfataricus, UniProt Q981B3 1-220, Q131A); assay: fluorescence polarization
T6 sequence: T1 sequence (Q981B3 1-220) with Q131A

SegA-Q131A/F158A = target: T7, SegA-Q131A/F158A (Sulfolobus solfataricus, UniProt Q981B3 1-220, Q131A;F158A); assay: fluorescence polarization
T7 sequence: T1 sequence (Q981B3 1-220) with Q131A, F158A

SegA [6] = target: T8, SegA (Sulfolobus solfataricus, UniProt Q981B3 1-220); assay: fluorescence polarization
T8 sequence: T1 sequence (Q981B3 1-220)

SegA [7] = target: T8, SegA; assay: fluorescence polarization; remark: listed apart in the source
SegA [8] = target: T8, SegA; assay: fluorescence polarization; remark: listed apart in the source
SegBΔ33 [9] = target: T2, SegBΔ33; assay: crystal structure

increase of SegA ATPase activity upon addition of both SegB and S1 DNA [1]: 1000 fold
stoichiometry N [2]: 2
Molecule: SegB (natural protein)

Molecule: Nc1ncnc2c1ncn2[C@@H]1O[C@H](COP(=O)(O)OP(=O)(O)NP(=O)(O)O)[C@@H](O)[C@H]1O [AMPPNP, adenosine 5′-(β,γ-imido)triphosphate]
X-ray crystal structure (SegA [3]): We observed AMPPNP inside the nucleotide binding pocket

stoichiometry N [4]: 2
Molecule: SegA (enzyme)

B1: 23-bp S1 DNA (dsDNA)
DNA 1: TACGTAGAAGAGTCTAGACTGAC
DNA 2: TCAGTCTAGACTCTTCTACGTAG
Kd (SegBΔ33 [5]): 280 nM
Kd (SegB): 180 nM
binding result (SegA-K14Q): binds
binding result (SegA-G10V): binds
binding result (SegA-Q131A): no binding
binding result (SegA-Q131A/F158A): no binding

B2: 24-bp nsDNA (dsDNA)
DNA 1: AGGGTGTTCCACGTGAAACAGGGA
DNA 2: TCCCTGTTTCACGTGGAACACCCT
Kd (SegA [6]): 450 nM
Kd (SegA [7]): 240 nM
Kd (SegA [8]): 710 nM

B3: 21-bp S1 DNA (dsDNA)
DNA 1: ACGTAGAAGAGTCTAGACTGA
DNA 2: CAGTCTAGACTCTTCTACGTA
binding result (SegBΔ33 [9]): binds
